Experiment: yeast display, Sf9 membrane polyspecificity reagent, FACS + sequencing; frameworks hold sequencing errors
Procedure, shortened: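 Using colony PCR, genes from sorted yeast display clones were amplified, then sequenced on MiSeq at 2 × 250 and filtered by CDR length. The clones had been stained with 10% biotinylated, detergent-solubilized Sf9 membrane reagent for 1 hour at 4 °C and sorted by FACS into low and high (top ~1%) gates on anti-HA and streptavidin fluorescence. Polyreactivity labels come from the gate of origin.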

Sequence	polyreactivity (PSR sort gate)
QVQLVESGGGLVQAGGSLRLSCAASGFTFKSYAMGWSRQAPGKERELVAAISRGGSTYYADSVKGRFTISRDNAKNTVYLQMNSLKPEDTAVYYCNKTRYSRSYYEYDYWGQGTQVTVSS	low polyreactivity
QVQLVESGGGLVQAGGSLRLSCAASGITFTVNAMGWYRQSPGKERELVAAISWSGGSTYYADSVKGRFTISRDNAKNTVYLQMNSLKPEDTAVYYCNAVLYRFAYNYWGQGTQVTVSS	low polyreactivity
QVQLVESGGGLVQAGGSLRLSCAASGLTLYKYAMGWYRQADGKVRELVATSRSRGTSTYYADSVKGRFTISRDNAKNTVYLQMNSLKPEDTAVYDCAADYLYRWLFAYNGGMDYCGQGTQVTVSS	high polyreactivity
QVQLVESGGGLVQAGGSLRLSCAASGSIFGNNAMGWYRQAPGKERELVATISYSGDSTYYADSVKGRFTISRDNAKNTVYLQMNSLKPEDTAVYYCAKQSDWVYKDRAYDYWGQGTQVTVSS	low polyreactivity
QVQLVESGGGLVQAGGSLRLSCAASGSIFFRNAMGWYRQAPGKERELVAAITSGGGTYYADSVKGRLTISRDNAKNTVYLQMNSLKPEDTAVYYCAVVRGSRAIKHYYWGQGTQVTVSS	high polyreactivity
QVKLVESGGGLVQAGGSLRLSCAAYGFIISYYAMGWYRQQPGKEREFVAVISRGGNTYYADSVKGRFTISRDNAKNTVYLQMNSLKPVDTAVYYCAASVPPYYPRQRHDGYDYWVQGTQVTVSS	low polyreactivity
QVQLVESGGGLVQAGGSLRLSSAASGRIFGVYAMGWYRQAPGKERELVAAITRSGGSTYYADSVKGRFTISRDNAKNTDYLQMKSLKPEDTAVYYCNRDFRGLAYSDRYDYWGQVTQVTVSS	low polyreactivity
QVQLVESGGGLVQAGGSLRLSCAASGFIFAYYAMGWYRQAPGKERELVAAISQIGGRTYYADSVKGRFTISRDNAKNTVYLQMNSLKPEDTAVYYCAKAGAYKYGYWGQGTQVTVSS	high polyreactivity
QDQLVESGGGLVHAGGSLRLSSAASGLTFSYYAMGWYRQAPGKERELVAAIDYSGGTTYADSVKGRFTISRDNAKNTVYLQMNSLKPEDTAVYYCADAPDGWFASGDEYWGHGTQVTVSS	high polyreactivity
QVQLVESGGGLVQAGGSLRLSCAASGFTFRYYAMGGYRQAPGKERELVAAITASGGSTNYADSVKGRFTISRDNAKNTVYLQMNSLKPEDTAVYYCAADVRFSYYNRYRGYSAYDNWGQGTQVTVSS	high polyreactivity
QVQLVESGGGLVQAGGSLRLSCAASGINFNRYAMGWYRQAPGNERELVAAITSSGGSTHYADSVKGRFTISRDNAKNTVYLQMNSLKPEDTAVYYCAKQFPNNYRYYLHYYYWGQGTQVTVSS	low polyreactivity
QVQLVESGGGLVQAGGSLRLICAASGSIFRSYAMGWYRQAPGKERELVAPIDRSGGSTYYADSVKGRLTISRDYAKNTVYCQLNSLKPEDTAVYNSNKTPHFPRPGFNYWGLGTQVTVSS	low polyreactivity
QDQLVESAGGLVQAGGSLRLICAATGSNFNRYAMGWYRQAAGKEREFVAAITRRGGNTYYADSVKGRFTISRDHPKNTVYLQMNSLKPVDTAVYYCAAPFYFPAGLLYYENNYWGHGTQVTVSS	high polyreactivity
QVQLVESGGGLVQAGGSLRISCDASGYIFGWNSMGWYRQAPGKERELVAAISSSGGNTYYADSVKGRFTISRDNAKNTVYLQMNSLKPEDTAVYYCARSYPYRYDYWGQGTQVTVSS	low polyreactivity
QVQLVESGGGLVQAGVSLRLSCAASGSTFRRYAMGWYRQAPGKAWEISTSDGSTYYADSVKGRFTISRDNAKNTVYLQMNSLKPEDTAVYYCAADGYRQLIEDITDDYWGQGTQVTVSS	low polyreactivity
QVQLVESGGGLVQAGGSLRLSCAASGIIFRWYGMGWYRQAPGKERELVATITSGGRTNYADSVKGRFTISRDNAKNTGYLQMHSLKPEDTAVYYCAAARLFAMDYWGQGTQVTVSS	low polyreactivity
QVQLVESGGGLVQAGGSLRLSCAASGRIFYPNAMGWYRQAPGKERELVAVIRSRGGSTYYADSVKGRFTISRDNAKNTVYLQMNSLKPEDTAVYYCAARWVGRRTKYDYWGQGTQVTVSS	high polyreactivity
QVQLVESGGGLVQAGGSLRLSCAASGNIFPYYAMGWYRQAPGKERELVAVISYGGGNTRYADSVKGRFTISRDNAKNTVYLQMNSLIPEDTAVYYCAARRWGAAPRPYEGYYWGQGSQVTVSS	low polyreactivity
QVQLVDSGGGLVQAGGSLRLSCAASGRIFRWNAMGWYRQAPGKERELVAVISSGGSTNYADSVKGRFTISRDNAKNTVYLQMNSLKPEDTAVYYCAKGLIRYSHLDYWGQGTQVTVSS	low polyreactivity
QVQLVESGGGLVQAGGSLRLSCAASGLIFHQYAMGWYRQAPGKERELVAAITRSGTRTYYADSVKGRFTISRDNAKNTVYLQMNSLKPEDTAVYYCAAADTQGVSMDYWGQGTQVTVSS	high polyreactivity
QVQLVESGGGLVQAGGSLRLSCAASGSIFVPYAMGWYRQAPGKERELVAAITWSGSSTYYADSVKGRFTISRDNAKNTVYLQMNSLKPEDTAVYYCAADYFDWEGNGYYYWGQGTQVTVSS	high polyreactivity
QVQLVESCGGLVQAGGSLRLSCAASGRTFRSYTMGWYRQAPGKERELVASIRTSSGCTYYADSVKGRFTISRDNAKNSVYLKMNSLKPEDTAVYYCAKTLLYPWFRTVAVDYWGQGTQVTVSS	low polyreactivity

Sequence	polyreactivity (PSR sort gate)
QVQLVESGGGLVQAGGSLRLSCAASGFILYYYALGWYRQAPGKEWEIVAAISRNGGRTYYADSVKGRFTISRDNAKNTVYLQMISLKPEDTAVDYCNKGVSRTLSSAYEYWGQGTQVTVSS	high polyreactivity
QVQLVESGGGLVQAGGSLRLSCAASGSTLYRYAMGWYRQAPGKERELVAAISSAGSTHYADSVKGRFTISRDNAKNTVYLQMNSLKPEDTAVYYCAAKRYLKYGYWGQGTQVTVSS	high polyreactivity
QVQLVESGGGLVQAGGSLRLSCAASGFIFWSNAMGWYRQAPGKERELVAAISWSGGSTYYADSVKGRFTISRDNAKNTVYLQMNSLKQEDTAVYYCAAEFWGWDWDLEYWGQGTQVTVSS	high polyreactivity
QVLLQESGGGLVQAGGSLRLGCAASGTISPAYYMGRYHQAPGKEREFVAAITYGTNTYYADSEKGRFTISRDNAKNTVYLQMNSLKPEDTAVYYCSATAGYNGAHDYWGQVTQVTVSS	low polyreactivity
QVQLVESGGGLVQAGGSHRLSCAASGFTLRYYSMGRNRPATGKERELVAPISFRGVRTYYADSVKGRFTISRDNAKNTVYLQMNSLKPEDTAVYYCAAASRRGVLYPSLPVLPDDYWGQGTQVTVSS	high polyreactivity
QIQLVESGGGLVQAGGSLRLSCAASGSIFSGYAMGWYRQAPGKERELVAAITSGGSTDYADSVKGRFTISRDNAKNTVYLQMNSLKPEDTAVYYCAAEGGYSSYGYDYWGQGTQVTVSS	low polyreactivity
QVQLVESGGGLVQAGGSLRLSCAASGRILGFYAMGWYRQAPGKERELDARINWSGTRTYYADSVKGRFTISRDNAKNTVYLQMNSLKPEDTAVYYCAAERYPYGVTYSKLDYWGQGTQVTVSS	high polyreactivity
QVQLVESGGGLVQAGGSLLLSCAASGFIFVSYAMGWYRQAPGKERELVAAIDRIGGITYYADSVKGRFTISRDNAKNTVYLQMNSLKREDTAVYYCAAAARFATVRVGREYYWGQGTQVTVSS	low polyreactivity
QVQLVESGGGLVQAGGSLRLSCAASGRTFRTYTMGWYRQAHGKERELVAAITSTGSTYYADSVKGRFTISRDNAMNTVYLQMNSLKPEDTAVYYCNVGRRLRPYRCTRPNLEYYYWGQGTQVTVSS	high polyreactivity
QVQLVESGGGLVQAGGSLRLSCAASGFIFDGYAMGWYRQAPGKERELVAAIDSGGDRTYYADSVKGRFTISRDNAKYTVYLQMNSLKPEDTAVYYCAADSSDPTGYDYWGQGTQVTVSS	low polyreactivity
QVQLVESGGGLVQAGGSLRLSCAASGRTFLYNAMGWYIQAPGKERELVAAISWNGGRTYYADSVKGRFTISRDNAKNTVYLQMNSLKPEDTAVYYCAKVDQLYNSRYDYWGQGTQVTVSS	high polyreactivity
QVQLVESGGGLVQAGGSLRLSCAASGSIFRVYAMGWYRQAPGKEREFVAAITRRGTRTYYADSVKGRFTISRDNAKNTVYLQMNSLKPEDTAVYYCAAYFTEGLYEYWGQGTQVTLSS	low polyreactivity
QVQLVESGGGLVQAGGSLRLSCAASGRTIYQYAMGWYRQAPGKERELVAAISRGGSTNYADSLKGRFTISRDNAKNTVFLQMHSLKPEDTAVYYCASWYKFLSLKRLYERDYWGQGTQVTVSS	high polyreactivity
QVQLVESGGGLVQAGGSLRLSCAASGRIFVDYAMGWYRQAPGKERELVAAIRSSGGSTYYADSVKGRFTISRDNAKNTVYLQMNSLKPEDTAVYYCNTPKYLRASSGYNYWGQGTQVTVSS	high polyreactivity
QFQLVESGGGLLQAGGSLRLSCAASGFTFSYNAKGWYRKAPGKERELVAAISSSGGSTYYADSVKGRFTISRDNAKNTVYLQMNILKPEDPSVYYCAVPYLTLYGRSYDYWGQGTQVTVSS	high polyreactivity
QVQLVESGGGLVQAGGSLRLSCAASGSIQTLYAMGWYRQAPGKERELVAAITSGDRTNYADSVKGRFTISRDNAKNTVYLQMNSLKPEDTAVYYCATKRWWGRYDYWGQGTQVTVSS	high polyreactivity
QVQLVESGGGLVQAGGSLRISCASSGFTFSQYAMGWYRQAPGKERELVAAISSSGGRTYYADSVKGRFTISRDNAKNTVYLQMKSLKPEDTAFFYCAAPGAQGLGLRGAGLDYWGQGTQVTVSS	high polyreactivity
QVQLVESGGGLVQAGGSLRLSCAASGSIFYPYVMGWYIQAPGKESELVASISRRGGRTYYADSVKGRFTISRDYAKNTVYLEMNSLKPEDTAVYYCAKRTYDSFYGYYYWGQVTQVTVSS	high polyreactivity
QVQLVESGGGLVQAGGSLRLSCAASGFTFAAYAMGWYRPAPGKERELVAAITSRDGTTYYADSVKGRFTISRNNAKNTVYLQMNSLKPEDTAVYYGAKDHFTWGVSEDDYWRQGTQVTVSS	low polyreactivity
QVQLVESGGGLVQAGGSLRLSCAASGRIFRVYAMGWYRQAPGKERELVAAISSYGGSTYYADSVKGRFTISRDNAKNTVYLQMNSLIPEDTAVYYCAAESSPDGYFLSDYWGQGTQVTVSS	low polyreactivity
QVQLVESGGGLVQAGGSLRLSCAASGITFEVYAKGWYRQAPGKERELVAVITSVGSTNYADSVKGRFTISRDNAKNTVYLQMNSLKPEDTAVYYCAAEKWTVRRFNPYTYYRYDYWGQGTQVTVSS	low polyreactivity

Source: the nanobody polyreactivity screen of Harvey et al. (2022)
